Source: patent US20150284465A1 (Chugai, published 2015)

What was measured:
[1] = biological target: T1, SR344 (N-terminal 1st to 344th amino acids of soluble human IL-6R) (human, UniProt P08887 20-344, limits assumed); assay: cell-based or functional assay
T1 sequence (looked up): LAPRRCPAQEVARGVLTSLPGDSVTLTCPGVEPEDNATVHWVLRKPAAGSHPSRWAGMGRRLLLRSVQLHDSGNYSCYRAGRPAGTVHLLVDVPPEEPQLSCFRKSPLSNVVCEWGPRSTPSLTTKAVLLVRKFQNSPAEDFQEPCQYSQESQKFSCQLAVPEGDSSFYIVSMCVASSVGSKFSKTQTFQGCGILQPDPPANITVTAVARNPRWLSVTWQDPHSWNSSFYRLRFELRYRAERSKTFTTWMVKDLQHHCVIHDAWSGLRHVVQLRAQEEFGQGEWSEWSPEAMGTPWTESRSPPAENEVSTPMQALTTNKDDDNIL

[2] = biological target: T1, SR344 (N-terminal 1st to 344th amino …); assay: SPR (Biacore T100), Protein A/G capture, SR344 as analyte, 37 C
[3] = biological target: T1, SR344 (N-terminal 1st to 344th amino …); assay: SPR (Biacore T100), Protein A/G capture, SR344 at 0, 0.36 and 1.4 µg/ml, 15 min dissociation, 37 C

BaF3/gp130 neutralizing activity, 100% inhibitory concentration against WT [1]: ≥ 100 fold | ka relative to PF1-IgG1 [2]: ~0.5 fold | Kd [3]: 52 pM | koff [3]: 4e-05 s⁻¹ | kon [3]: 770000 M⁻¹ s⁻¹
B1: F2H/L39-IgG1 (antibody, V domains shown)
VH: QVQLQESGPGLVKPSETLSLTCAVSGYSISDDHAWSWVRQPPGEGLEWIGYISYSGITNYNPSLQDRVTISRDNSKNTLYLQMNSLRAEDTAVYYCARLLARATAMDYWGQGILVTVSS
VL: DIQMTQSPSSLSASVGDSVTITCQASEDISSYLNWYQQKPGKAPELLIYYGSELESGVPSRFSGSGSGTDFTFTISSLEAEDAATYYCGQGNRLPYTFGQGTKVEIER
